B1: hu167-31 (antibody, V domains shown)
VH: QVQLVQSGAEVKKPGASVKVSCKASGYTFTSYWMHWVRQAPGQGLEWMGNIDPSDSETHYNQKFKDRVTMTRDTSISTAYMELSRLRSDDTAVYYCARWGYLGRSAMDYWGQGTTVTVSS
VL: DVQMTQSPSSLSASVGDRVTITCRTSKSISKFLAWYQQKPGKAPKLLIYSGSTLQSGVPSRFSGSGSGTDFTLTISSLQPEDFATYYCQQHNEYPWTFGGGTKVEIK
B2: hu167-32 (antibody, V domains shown)
VH: QVQLVQSGAEVKKPGASVKVSCKASGYTFTSYWMHWVRQAPGQGLEWMGNIDPSDSETHYNQKFKDRVTMTRDTSISTAYMELSRLRSDDTAVYYCARWGYLGRSAMDYWGQGTTVTVSS
VL: DIQITQSPSSLSASVGDRVTITCRTSKSISKFLAWYQQKPGKAPKLLIYSGSTLQSGVPSRFSGSGSGTDFTLTISSLQPEDFATYYCQQHNEYPWTFGGGTKVEIK
B3: hu167-33 (antibody, V domains shown)
VH: QVQLVQSGAEVKKPGASVKVSCKASGYTFTSYWMHWVRQAPGQGLEWMGNIDPSDSETHYNQKFKDRVTMTRDTSISTAYMELSRLRSDDTAVYYCARWGYLGRSAMDYWGQGTTVTVSS
VL: DVQITQSPSSLSASVGDRVTITCRTSKSISKFLAWYQQKPGKAPKLLIYSGSTLQSGVPSRFSGSGSGTDFTLTISSLQPEDFATYYCQQHNEYPWTFGGGTKVEIK
B4: hu167-1 (antibody, V domains shown)
VH: QVQLVQSGAEVKKPGASVKVSCKASGYTFTSYWMHWVRQAPGQGLEWMGNIDPSDSETHYNQKFKDRVTMTRDTSISTAYMELSRLRSDDTAVYYCARWGYLGRSAMDYWGQGTTVTVSS
VL: DIQMTQSPSSLSASVGDRVTITCRTSKSISKFLAWYQQKPGKAPKLLIYSGSTLQSGVPSRFSGSGSGTDFTLTISSLQPEDFATYYCQQHNEYPWTFGGGTKVEIK
B5: chimeric antibody ch-167 (antibody, V domains shown)
VH: QVQLQQPGAELVRPGSSVKLSCKASGYTFTSYWMHWVKQRPIQGLEWVGNIDPSDSETHYNQKFKDKATLTVDKSSSTAYMQLSSLTSEDSAVYYCARWGYLGRSAMDYWGQGTSVTVSS
VL: DVQITQSPSYLAASPGETITINCRTSKSISKFLAWYQEKPGKTHKLLIYSGSTLQSGIPSRFSGSGSGTDFTLTISSLEPEDFAMYYCQQHNEYPWTFGGGTKLEIK
B6: hu055-1 (antibody, V domains shown)
VH: QVQLVQSGAEVKKPGASVKVSCKASGYTFTSSYLHWVRQAPGQRLEWMGWIYPESGNTKYNERFKGRVTITRDTSASTAYMELSSLRSEDTAVYYCARRGDVFFAYWGQGTTVTVSS
VL: DIVMTQSPDSLAVSLGERATINCKSSQSLLTSGKQKNYLTWYQQKPGQPPKLLIYWASTRESGVPDRFSGSGSGTDFTLTISSLQAEDVAVYYCQNDYSYPLTFGQGTKLEIK
B7: hu055-5 (antibody, V domains shown)
VH: QVQLVQSGAEVKKPGASVKVSCKASGYTFTSSYLHWVRQAPGQRLDWIGWIYPESGNTKYNERFKGRATLTADTSASTAYMELSSLRSEDTAVYYCARRGDVFFAYWGQGTTVTVSS
VL: DIVMTQSPDSLAVSLGERATINCKSSQSLLTSGKQKNYLTWYQQKPGQPPKLLIYWASTRESGVPDRFSGSGSGTDFTLTISSLQAEDVAVYYCQNDYSYPLTFGQGTKLEIKR
B8: hu055-8 (antibody, V domains shown)
VH: QVQLVQSGAEVKKPGASVKVSCKASGYTFTSSYLHWVRQAPGQRLEWMGWIYPESGNTKYNERFKGRVTITRDTSASTAYMELSSLRSEDTAVYYCARRGDVFFAYWGQGTTVTVSS
VL: DIVMTQSPDSLAVSLGERATINCKSSQSLLTSGKQKNYLTWYQQKPGQPPKLLIYWASTRESGVPERFSGSGSGTDFTLTISSLQAEDVAVYYCQNDYSYPLTFGQGTKLEIK
B9: chimeric antibody ch-055 (antibody, V domains shown)
VH: QVLLQQSGPELVQPGASVKISCKASGYSFTSSYLHWVKQRPGQGLDWIGWIYPESGNTKYNERFKGKATLTADTSSSTAYMQLSSLTSEDSAVYYCSRRGDVFFAYWGQGTTLTVSS
VL: DIVMTQSPSYLTVTAGEKVTMSCKSSQSLLTSGKQKNYLTWYQQKPGQPPKLLIYWASTRESGVPERFRGSGSGTDFTLTISSVQAEDLAVYYCQNDYSYPLTFGAGTKLELN

The target of one experiment is human CD47-his (Sino Biological, CAT#12283-HCCH-50) (human) (UniProt Q08722). Briefly: SPR (Biacore), KD compared with hu167-4. (In SPR one partner is held on a chip, and binding of the other changes the refractive index at the surface.)
B1: the KD ratio against hu167-4 stood at 1.3.
The same measure, in the same setting: with B2 the figure was 1.2; with B3, 0.98.

In the next experiment the target is T1, human CD47-his (Sino Biological, CAT#12283-HCCH-50) (human, UniProt Q08722 19-139, limits assumed).
T1 construct: Bought protein used as analyte in Biacore; also called 人CD47-his; human CD47-his antigen; not shown: His tag of the bought protein
Kind of experiment: SPR (Biacore): antibody captured with human Fab capture kit on CM5 chip, human CD47-his flowed over.
Turning to B4, the “KD fold difference (against ch-167)” value worked out at 2.04, binding was put at a Kd of 0.664 nM, the koff turned out to be 0.000991 s⁻¹ and the kon is 1.49e+06 M⁻¹ s⁻¹.
Consider B5, for which the “KD fold difference (against ch-167)” value amounted to 1, the Kd came to 0.325 nM, the koff came out at 0.000558 s⁻¹ and the kon is 1.72e+06 M⁻¹ s⁻¹.
B6: the “KD fold difference (against ch-055)” value was determined as 3.5, binding was characterised by a dissociation constant (Kd) of 0.585 nM, the koff was 0.000976 s⁻¹ and the kon was 1.67e+06 M⁻¹ s⁻¹.
In the same order, the values of B7 are 1.1, 0.182 nM, 0.000382 s⁻¹ and 2.1e+06 M⁻¹ s⁻¹.
On to B8, for which the “KD fold difference (against ch-055)” value amounted to 3.7, binding was put at a Kd of 0.617 nM, the koff is 0.000987 s⁻¹ and the kon came to 1.6e+06 M⁻¹ s⁻¹.
For B9, the “KD fold difference (against ch-055)” value stood at 1, the Kd was 0.167 nM, the koff stood at 0.000389 s⁻¹ and the kon is 2.32e+06 M⁻¹ s⁻¹.

A further experiment has as its target natural CD47 on the surface of CCRF-CEM cells (UniProt Q08722). Briefly: flow cytometry on CCRF-CEM cells, sample at 1 ug/ml, Alexa Fluor 488 goat anti-human (H+L); blank control 30.0. (In general: A flow cytometer gives signals particle by particle.)
Consider IgG4-Fc control, for which the flow cytometry binding signal (流式结合信号) came to 65.1.

The target is the same in a further experiment. Kind of experiment: flow cytometry on CCRF-CEM cells, antibody at 1 ug/ml, Alexa Fluor 488 goat anti-human (H+L); blank control 30.0.
The molecule B3 registered a flow cytometry binding signal (流式结合信号) of 27800.

In general, Kd refers to the concentration at which binding is half-saturated. A low value points to a tighter complex. For orientation: koff means a measure of how fast the partners let go of each other. Read a high koff as fast dissociation. What is called kon is the second-order rate constant of association. Higher therefore signals fast association.

For the origin of these results see patent WO2018095428A1 (dated 2018).
